# Source: US20230273213A1, “PEPTIDE DESIGN AND GALECTIN-3 INHIBITORS” (City of Hope, priority 2020, published 2023)
# Key:
# [1] = biological target: T1, GST-Galectin-3 (Homo sapiens, UniProt P17931); experiment: Galectin-3 mediated agglutination assay on LAX56 pre-B ALL cells; format: cell-based
# T1 construct: Full-length human GST-Galectin-3 (hereafter named GST-Gal3) in pGEX2T was previously described; made in house
# Procedure: Cells, culture and agglutination assay. LAX56 human pre-B ALL cells were routinely co-cultured with mitomycin-C inactivated OP9 stromal cells. These previously described primary leukemia cell grew directly out from a relapse bone marrow sample (36, 37). For agglutination assays, cells were harvested, washed once in α-MEM medium, resuspended in 10 ml X-VIVO 15 medium (Lonza) and incubated at 37° C. for 24 h remove the Galectin-3 produced by OP9 stromal cells. For the assay, ALL cells were resuspended in X-VIVO 15 medium at a concentration of 1×10^6/ml and seeded at 2×10^5/200 μl cells into wells. […] Peptides, if included, were preincubated for 5 minutes with the recombinant proteins and added at different concentrations as indicated in the figures. TD139 was purchased from MedChemExpress and used at 100 μM. Phase contrast images were taken after 1-2 hours. Agglutination was defined as aggregates containing >10 cells per cluster. 2-13 images from different areas were taken and evaluated for cell clusters per condition. Biological data were graphed with GraphPad Prism software (version8.3.1). Values represent mean±SEM of the number of aggregates scored per independent image.
# We used two approaches to test this experimentally. Mutation of critical residues in that pocket could abolish binding to the IDR and the agglutination activity of Galectin-3. Also, a peptide could potentially fit in the shallow pocket and inhibit the IDR interaction. A classical test for carbohydrate-binding activity of a lectin including Galectin-3 is an agglutination assay (36, 38, 42). In this assay, recombinant Galectin-3 is tested for its ability to promote lattice formation by binding in a multivalent manner to glycoproteins located on the cell surface: when cell surface glycoprotein targets are located on different cells, carbohydrate binding combined with multimer formation causes cellular agglutination. […] Thus we used an agglutination assay in which recombinant Galectin-3 is added to patient-derived precursor B-acute lymphoblastic leukemia cells (pre-B ALL) as a readout for Galectin-3 lattice-forming activity.
# [2] = biological target: T2, GST-Gal3 L203A (Homo sapiens, UniProt P17931, L203A); experiment: agglutination assay with GST-Gal3 L203A mutant; format: cell-based; details: LAX56 cells
# T2 construct: Full-length human GST-Galectin-3 (hereafter named GST-Gal3) in pGEX2T was previously described; made in house; host or cells: E. coli BL21(DE3)
# Procedure: (§1) Cells, culture and agglutination assay. LAX56 human pre-B ALL cells were routinely co-cultured with mitomycin-C inactivated OP9 stromal cells. These previously described primary leukemia cell grew directly out from a relapse bone marrow sample (36, 37). For agglutination assays, cells were harvested, washed once in α-MEM medium, resuspended in 10 ml X-VIVO 15 medium (Lonza) and incubated at 37° C. for 24 h remove the Galectin-3 produced by OP9 stromal cells. For the assay, ALL cells were resuspended in X-VIVO 15 medium at a concentration of 1×10^6/ml and seeded at 2×10^5/200 μl cells into wells. GST (12.5 μg/ml) or GST-Galectin-3 (25 μg/ml or 150 μg/ml, two different isolates) recombinant proteins were added in 300 μl X-VIVO 15 medium to duplicate wells. Peptides, if included, were preincubated for 5 minutes with the recombinant proteins and added at different concentrations as indicated in the figures. TD139 was purchased from MedChemExpress and used at 100 μM. Phase contrast images were taken after 1-2 hours. Agglutination was defined as aggregates containing >10 cells per cluster. 2-13 images from different areas were taken and evaluated for cell clusters per condition. Biological data were graphed with GraphPad Prism software (version8.3.1). Values represent mean±SEM of the number of aggregates scored per independent image.
# (§2) GST-Galectin-3 and mutants. […]
# [3] = biological target: T3, GST-Gal3 L131A (Homo sapiens, UniProt P17931, L131A); experiment: agglutination assay with GST-Gal3 L131A mutant; format: cell-based; details: LAX56 cells
# T3 construct: Full-length human GST-Galectin-3 (hereafter named GST-Gal3) in pGEX2T was previously described; made in house; host or cells: E. coli BL21(DE3)
# Procedure: as §1, §2
# [4] = biological target: T4, Galectin-3 CTD (Homo sapiens, UniProt P17931); experiment: 15N-1H HSQC NMR titration of Galectin-3 CTD with peptide-3; format: binding
# T4 construct: We generated a Galectin-3 CTD construct including amino acids 117-250; GST (N, cleaved yes); made in house; host or cells: E. coli BL21(DE3), M9 medium with 15N ammonium chloride
# Procedure: Galectin-3 CTD construct for NMR. The Galectin-3 C-terminal domain construct was generated using the same methods described above for the mutants. The protein includes Galectin-3 amino acids P117-1250 as well as residual attached glycine and serine residues after thrombin cleavage. Single colonies were grown overnight in LB+ amp, collected by centrifugation then inoculated in M9 media with ammonium-^15N chloride (Sigma) and grown for 3-4 hours. After induction of protein production with IPTG for an 3-4 additional hrs, cells were harvested and suspended in 1% NP40, PI, PMSF, 1 mM DTT, 50 mM Tris-HCl, pH 7.5. Cells were disrupted by sonication. GST-Galectin-3 was bound to glutathione-agarose (Genscript Cat #L00207) overnight at 4° C. Beads were washed 4× in lysis buffer, then suspended in 50 mM Tris-HCl pH 7.5, 0.1 mM DTT and treated with 60 u thrombin/ml (Fisher Cytiva Thrombin Protease) for 16 hrs at RT. The supernatant containing Galectin-3 protein was treated with benzamidine sepharose (Sigma, HiTrap Benzamidine FF) to bind and remove thrombin. Protein was concentrated using an Amicon 3K filter and used in 20 mM potassium phosphate buffer pH 6.8, 0.1 mM DTT for NMR. Protein concentrations were determined by BCA.
# NMR. ^15N-^1H HSQC 700 MHz spectra were acquired with 20 μM Galectin-3 CTD [in 20 mM potassium phosphate buffer, pH 6.8, 0.1 mM DTT] and different molar ratios of added peptide-3 as indicated in FIG. 5. The chemical shift perturbation (CSP) 06 was calculated using the following equation: Δ\ delta=√{square root over ((ΔωN^2+ΔωH^2)/2)}. The ΔωN and ΔωH are the nitrogen and proton chemical shift difference between free ^15N-CTD and that in the mixture with P3 peptide. Assignments are based on the Galectin-3 CTD NMR data of Ippel (25) and Umemoto (39). […] Because L135 and W181 patterns differ between Ippel and Umemoto, their assignments could not be unambiguously determined. […]
# [5] = GST-Gal3, 1-2 hours, peptide preincubated 5 minutes with protein
# T1 sequence (P17931 2-250): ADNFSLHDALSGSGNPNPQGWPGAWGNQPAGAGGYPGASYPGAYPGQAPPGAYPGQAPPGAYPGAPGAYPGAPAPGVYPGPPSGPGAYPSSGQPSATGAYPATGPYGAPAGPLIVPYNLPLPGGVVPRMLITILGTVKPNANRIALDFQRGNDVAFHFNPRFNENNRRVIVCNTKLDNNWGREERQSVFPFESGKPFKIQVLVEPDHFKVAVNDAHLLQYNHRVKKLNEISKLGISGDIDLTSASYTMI
# T4 sequence (P17931 117-250): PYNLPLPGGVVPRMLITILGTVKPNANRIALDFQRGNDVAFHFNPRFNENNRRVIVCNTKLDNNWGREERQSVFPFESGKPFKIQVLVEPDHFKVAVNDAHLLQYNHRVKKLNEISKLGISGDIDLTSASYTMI
# T3 sequence (P17931 whole entry L131A): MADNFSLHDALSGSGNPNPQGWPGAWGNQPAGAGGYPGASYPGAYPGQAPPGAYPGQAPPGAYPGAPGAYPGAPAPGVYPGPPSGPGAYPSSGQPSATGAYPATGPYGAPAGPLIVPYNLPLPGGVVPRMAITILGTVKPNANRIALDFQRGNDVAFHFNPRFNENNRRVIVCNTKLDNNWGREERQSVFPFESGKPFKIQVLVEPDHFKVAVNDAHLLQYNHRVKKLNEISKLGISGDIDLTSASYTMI
# T2 sequence (P17931 whole entry L203A): as the sequence (P17931 whole entry L131A) above, with A131L, L203A counted along it
compound,measurement,setting,value
"OC[C@H]1O[C@@H](S[C@@H]2O[C@H](CO)[C@H](O)[C@H](n3cc(-c4cccc(F)c4)nn3)[C@H]2O)[C@H](O)[C@@H](n2cc(-c3cccc(F)c3)nn2)[C@H]1O [TD139, 3-deoxy-3-[4-(3-fluorophenyl)-1H-1,2,3-triazol-1-yl]-β-D-galactopyranosyl 3-deoxy-3-[4-(3-fluorophenyl)-1H-1,2,3-triazol-1-yl]-1-thio-β-D-galactopyranoside, reference compound]",effect on Galectin-3-mediated agglutination,"[1]; GST-Gal3, 100 μM, positive control",clearly inhibited
ACE-ARAMGYPGASY-NH2 (Ac-ARAMGYPGASY-NH2) [Peptide 1],effect on Galectin-3-mediated agglutination,[1]; [5],had no effect on agglutination
ACE-YYPGAYPRRYR-NH2 (Ac-YYPGAYPRRYR-NH2) [Peptide 3],effect on Galectin-3-mediated agglutination,[1]; [5],positive hit
same,effect on Galectin-3-mediated agglutination,"[1]; GST-Gal3, 1-2 hours, peptide preincubated 5 minutes with protein, listed as P3",efficiently inhibits
same,effect on Galectin-3-mediated agglutination,"[1]; GST-Gal3, 1-2 hours, peptide preincubated 5 minutes with protein, listed as YYPGAYPRRYR",inhibits Galectin-3 mediated agglutination
same,effect on Galectin-3-mediated agglutination,"[1]; GST-Gal3, 1-2 hours, peptide preincubated 5 minutes with protein, listed as peptide 3",inhibits agglutination
same,effect on Galectin-3-mediated agglutination,"[1]; GST-Gal3, 1-2 hours, peptide preincubated 5 minutes with protein, listed as peptide-3",clearly was inhibitory
same,inhibition of agglutination mediated by the L203A mutant,[2],could still be inhibited
same,inhibition of agglutination mediated by the L131A mutant,[3],largely insensitive to inhibition
same,contacts with the CTD by NMR,"[4]; 20 μM 15N CTD, up to 100:1 peptide:CTD",makes extensive contacts with amino acids in the CTD
same,"shift of S-face residues R186, K227 or Y221 upon exposure",[4]; data not shown,no shift
same,chemical shift perturbation (CSP) of residue T248,[4]; one unit of RMSD,about 10.9 Hz
"ANTPCGPYTHDCPVKR [Peptide-4, reference compound]",effect on Galectin-3-mediated agglutination,[1]; [5],did not have an effect
N-terminal acetyl-ARAFGYPIYSY-C-terminal amide (Ac-ARAFGYPIYSY-NH2) [Peptide 2],effect on Galectin-3-mediated agglutination,[1]; [5],had no effect on agglutination
"PTHVTCKYCPAGNRDP [Peptide-5, scrambled negative control peptide described in the same study, reference compound]",effect on Galectin-3-mediated agglutination,[1]; [5],did not have an effect
